Here are results for one molecule from patent US20070086956A1, “Method for accelerating the rate of mucociliary clearance” (BAYER AKTIENGESELLSCHAFT, priority 1998, published 2007).

The test system of series [1] is human bronchial epithelial cell (HBE). To be noted: cited from earlier work.
Series [2] can be described thus: Stability to degradation on incubation. In kind it is physicochemical. To be noted: 72-hours incubation at ambient temperature or at 37° C., neutral pH.
For series [3], the system named is ovine tracheal epithelial cells. Put plainly: Short circuit current (Isc) in cultured ovine tracheal epithelial (OTE) cells. The conditions noted are these: 100 ug/mL; over a 90 minute period; FIG. 24. It is filed as cell-based. How it is done: The aim of this study was to investigate the effect of Bikunin (1-170) (See Example 17), on Isc in OTE cells in vitro. OTE cells were seeded onto 1.2 cm diameter, 0.4 um pore size Snapwell™ inserts (Costar UK). Cells were grown to confluence and mounted in modified Ussing chambers 3-5 days after placement on air-liquid interface. Inserts were immersed in Krebs buffer (KBR) solution and bubbled with 95% O2/5% CO2 warmed to 37° C.
After a 20 minute equilibration period, transepithelial potential difference was then clamped to 0 mV using a WPI EVC 4000 voltage clamp. Ag/AgCl electrodes were used to monitor Isc. Once a stable baseline was achieved (typically 30 mins), cells were treated with amiloride (10 uM). Once a response to amiloride was obtained, it was washed out with KBR solution. After return to baseline, Bikunin (1-170) described in Example 17 (25, 50 or 100 ug/mL) or PBS was added. 90 minutes following agent treatment amiloride (10 uM) was again added.

For series [4], the system named is sheep airways. Put plainly: Tracheal mucus velocity in the sheep. It is filed as in vivo. How it is done: The aim of this study was to investigate the effect of the Kunitz family serine protease inhibitor Bikunin (1-170) described in Example 17 on sheep trachcal mucus velocity over 8 hours after treatment. This agent was delivered by nebulised aerosol administration to the airways. The procedure used in this example is described in O'Riordan et al., J. Applied Physiol. 85(3), 1086-1091, 1998.
Adult ewes were restrained in an upright position, with their heads immobilized, in a specialized body harness. They were nasally intubated with an endotracheal tube, with the cuff placed just below the vocal cords. The inspired air was warmed and humidified. To minimize possible impairment of TMV caused by inflated cuffs, the endotracheal tube cuff remained deflated throughout the study except for the period of aerosol administration.
To measure TMV 5 to 10 radiopaque Teflon particles (approximately 1 mm in diameter, 0.8 mm thick, and weighing 1.5 to 2 mg) were insufflated into the trachea via a catheter placed within the endotracheal tube. The movement of the Teflon particles was then measured over a 1 minute period. The procedure used in this example is described in Russi et al., J. Applied Physiol. 59(5), 1416-1422, 1985. A collar containing radiopaque markers of known length was applied to the exterior of the animals and used as a standard to convert distance traversed by the particles on the video screen to actual distance traveled. TMV was calculated from the average distance in a cephalad direction traveled per minute for 5 to 10 Teflon particles. Baseline TMV was measured immediately prior to administration of aerosol.
Test substances; PBS, 1 mg/mL Bikunin in PBS, or 3 mg/mL Bikunin in PBS; were delivered to the sheep airways as an aerosol (3 mL) generated using a Raindrop jet nebuliser operated at a flow rate that produced droplets of mass median aerodynamic diameter of 3.6 um. […]

B1: CHO Bikunin (1-170): Glycosylated placental bikunin (1-170), SEQ ID NO: 52, expressed in Chinese hamster ovary cells (Example 17) (protein, listed as Homo sapiens)
chain: ADRERSIHDFCLVSKVVGRCRASMPRWWYNVTDGSCQLFVYGGCDGNSNNYLTKEECLKKCATVTENATGDLATSRNAADSSVPSAPRRQDSEDHSSDMFNYEEYCTANAVTGPCRASFPRWYFDVERNSCNNFIYGGCRGNKNSYRSEEACMLRCFRQQENPPLPLGSK
modifications: glycosylated, CHO-expressed
With B1, the “inhibition of the baseline Isc” value in series [1] (70 nM, in 90 minutes (McAulay et al 1998)) is given as 58%. Also, in series [1] (1.5 ug.ml−1: 70 nM, normal HBE cells, n=5-8 (McAulay et al 1998)), the “inhibition of Na+ Isc” value is recorded as 54%. For the same molecule, the stability to degradation result in series [2] is recorded as “stable to degradation”. Moreover, in series [3], the sodium current result is recorded as “significantly inhibited sodium current”. Also, the TMV result in series [4] (3 mg aerosol (3 mL of 1 mg/mL), any time point versus vehicle) is on record as “no significant differences”; in series [4] (9 mg aerosol (3 mL of 3 mg/mL), at 0, 0.5, 3, 4, 5, 6, 7, and 8 hours versus PBS vehicle, FIG. 22), “significantly increased TMV”; in series [4] (9 mg aerosol, at 24 hours), “returned to baseline rates”.
